Assay results from US20210347891A1.

How the values were obtained:
[1] = target: single chain FcRn-β2m-his (human scFcRn, Acro Biosystems Cat. No. FCM-H5286) (human) (UniProt P55899); assay: SPR, antibody on CM5 chip, scFcRn 400-25 nM, pH 5.8 PBS
[2] = target: single chain FcRn-β2m-his (human scFcRn, Acro Biosystems Cat. No. FCM-H5286) (human) (UniProt P55899); assay: SPR, antibody on CM5 chip, scFcRn 400-25 nM, pH 5.8 PBS, 1:1 Langmuir
[3] = target: single chain FcRn-β2m-his (human scFcRn, Acro Biosystems Cat. No. FCM-H5286) (human) (UniProt P55899); assay: SPR, antibody on CM5 chip, scFcRn, pH 5.8

Chain of single chain FcRn-β2m-his (human scFcRn, Acro Biosystems Cat. No. FCM-H5286) (human) (P55899 other isoform, or with tags, fused parts or gaps): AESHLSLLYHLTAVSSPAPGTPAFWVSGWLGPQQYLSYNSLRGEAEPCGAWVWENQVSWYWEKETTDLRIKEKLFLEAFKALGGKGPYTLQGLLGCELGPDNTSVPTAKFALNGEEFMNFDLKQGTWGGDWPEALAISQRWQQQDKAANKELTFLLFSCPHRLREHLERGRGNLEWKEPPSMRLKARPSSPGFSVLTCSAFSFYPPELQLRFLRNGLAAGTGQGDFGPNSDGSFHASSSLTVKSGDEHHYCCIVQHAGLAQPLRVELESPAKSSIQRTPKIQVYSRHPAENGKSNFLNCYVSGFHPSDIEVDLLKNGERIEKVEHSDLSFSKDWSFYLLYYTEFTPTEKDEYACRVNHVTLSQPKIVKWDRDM

Row | Binder | Kd [1] | Kd [2] | koff [2] | kon [2] | fold enhanced KD comparing with wild type IgG2 [3] | fold enhanced KD comparing with wild type IgG3 [3] | fold enhanced KD comparing with wild type IgG4 [3]
1 | Herceptin-IgG2 (wild type IgG2 with the Fab of trastuzumab) (antibody, part only; not given: Fab (trastuzumab), not shown: another chain or arm of the molecule, Glycosylated at N297 (HEK293F expression). The Fc is a disulfide-linked homodimer in the full IgG.) Fc: ERKCCVECPPCPAPPVAGPSVFLFPPKPKDTLMISRTPEVTCVVVDVSHEDPEVQFNWYVDGVEVHNAKTKPREEQFNSTFRVVSVLTVVHQDWLNGKEYKCKVSNKGLPAPIEKTISKTKGQPREPQVYTLPPSREEMTKNQVSLTCLVKGFYPSDISVEWESNGQPENNYKTTPPMLDSDGSFFLYSKLTVDKSRWQQGNVFSCSVMHEALHNHYTQKSLSLSPGK | 2140 nM | – | – | – | – | – | –
2 | Herceptin-IgG2-DHS (V309D, Q311H, N434S) (antibody, part only; not given: trastuzumab Fab, not shown: another chain or arm of the molecule, Glycosylated at N297 (HEK293F expression). The Fc is a disulfide-linked homodimer in the full IgG.) Fc: ERKCCVECPPCPAPPVAGPSVFLFPPKPKDTLMISRTPEVTCVVVDVSHEDPEVQFNWYVDGVEVHNAKTKPREEQFNSTFRVVSVLTVDHHDWLNGKEYKCKVSNKGLPAPIEKTISKTKGQPREPQVYTLPPSREEMTKNQVSLTCLVKGFYPSDISVEWESNGQPENNYKTTPPMLDSDGSFFLYSKLTVDKSRWQQGNVFSCSVMHEALHSHYTQKSLSLSPGK | – | 377 nM | 0.086 s⁻¹ | 227000 M⁻¹ s⁻¹ | 5.7 fold | – | –
3 | Herceptin-IgG3 (wild type IgG3 with the Fab of trastuzumab) (antibody, part only; not given: trastuzumab Fab; H435 or R435 unclear, not shown: another chain or arm of the molecule, Glycosylated Fc homodimer (HEK293F); one chain is given.) Fc: ELKTPLGDTTHTCPRCPEPKSCDTPPPCPRCPEPKSCDTPPPCPRCPEPKSCDTPPPCPRCPAPELLGGPSVFLFPPKPKDTLMISRTPEVTCVVVDVSHEDPEVQFKWYVDGVEVHNAKTKPREEQYNSTFRVVSVLTVLHQDWLNGKEYKCKVSNKALPAPIEKTISKTKGQPREPQVYTLPPSREEMTKNQVSLTCLVKGFYPSDIAVEWESSGQPENNYNTTPPMLDSDGSFFLYSKLTVDKSRWQQGNIFSCSVMHEALHNHFTQKSLSLSPGK | 4080 nM | – | – | – | – | – | –
4 | Herceptin-IgG3-DHS (L309D, Q311H, N434S) (antibody, part only; not given: trastuzumab Fab, not shown: another chain or arm of the molecule, Glycosylated Fc homodimer (HEK293F); one chain is given.) Fc: ELKTPLGDTTHTCPRCPEPKSCDTPPPCPRCPEPKSCDTPPPCPRCPEPKSCDTPPPCPRCPAPELLGGPSVFLFPPKPKDTLMISRTPEVTCVVVDVSHEDPEVQFKWYVDGVEVHNAKTKPREEQYNSTFRVVSVLTVDHHDWLNGKEYKCKVSNKALPAPIEKTISKTKGQPREPQVYTLPPSREEMTKNQVSLTCLVKGFYPSDIAVEWESSGQPENNYNTTPPMLDSDGSFFLYSKLTVDKSRWQQGNIFSCSVMHEALHSHFTQKSLSLSPGK | – | 739 nM | 0.126 s⁻¹ | 170000 M⁻¹ s⁻¹ | – | 5.5 fold | –
5 | Herceptin-IgG4-DHS (L309D, Q311H, N434S) (antibody, part only; not given: trastuzumab Fab, not shown: another chain or arm of the molecule, Glycosylated Fc homodimer (HEK293F); one chain is given.) Fc: ESKYGPPCPSCPAPEFLGGPSVFLFPPKPKDTLMISRTPEVTCVVVDVSQEDPEVQFNWYVDGVEVHNAKTKPREEQFNSTYRVVSVLTVDHHDWLNGKEYKCKVSNKGLPSSIEKTISKAKGQPREPQVYTLPPSQEEMTKNQVSLTCLVKGFYPSDIAVEWESNGQPENNYKTTPPVLDSDGSFFLYSRLTVDKSRWQEGNVFSCSVMHEALHSHYTQKSLSLSLGK | – | 832 nM | 0.151 s⁻¹ | 281000 M⁻¹ s⁻¹ | – | – | 3 fold
